Several values for one entry are separate records, joined by “and”; a condition that tells them apart may be missing. Equal entries are not always repeated.
Legend:
[1] = molecular target: H3K9me3 peptide, FITC-labeled; assay: fluorescence polarisation; 0.5 nM FITC-labeled peptide, chromodomain serially diluted (wild types 200-0.2 µM; Cbx7.V1 and Cbx.VDs 50 µM-50 nM); 25 °C, 30 min; 25 mM HEPES pH 7.5, 150 mM NaCl, 1 mM DTT, 0.01% TritonX-100; one-site total binding model; values of single replicates
[2] = molecular target: H3K9me3 peptide, N-terminal FITC; assay: fluorescence polarisation; 0.5 nM FITC-labelled peptide; chromodomains 200-0.2 µM (wild type) or 50 µM-50 nM (Cbx7.V1 and all Cbx.VDs); 30 min at 25 °C; 25 mM HEPES pH 7.5, 150 mM NaCl, 1 mM DTT, 0.01% TritonX-100; one-site total binding model
[3] = molecular target: H3K27me3 peptide, FITC-labeled; assay: fluorescence polarisation; 0.5 nM FITC-labeled peptide, chromodomain serially diluted (wild types 200-0.2 µM; Cbx7.V1 and Cbx.VDs 50 µM-50 nM); 25 °C, 30 min; 25 mM HEPES pH 7.5, 150 mM NaCl, 1 mM DTT, 0.01% TritonX-100; one-site total binding model; values of single replicates
[4] = molecular target: H3K27me3 peptide, N-terminal FITC; assay: fluorescence polarisation; 0.5 nM FITC-labelled peptide; chromodomains 200-0.2 µM (wild type) or 50 µM-50 nM (Cbx7.V1 and all Cbx.VDs); 30 min at 25 °C; 25 mM HEPES pH 7.5, 150 mM NaCl, 1 mM DTT, 0.01% TritonX-100; one-site total binding model
[5] = molecular target: Histone H3 H3K9me3 peptide (Homo sapiens) (UniProt P68431); conditions: cited from earlier work
[6] = molecular target: FITC-labeled H3K9me3 peptide; assay: fluorescence polarisation; 0.5 nM FITC-labeled peptide, chromodomain serially diluted (wild type 200-0.2 µM; Cbx7.V1 50 µM-50 nM); 25 mM HEPES pH 7.5, 150 mM NaCl, 1 mM DTT, 0.01% TritonX-100; 30 min at 25 °C; one-site total binding model
[7] = molecular target: H3K27 peptide (non-methylated), N-terminal biotin; assay: phage ELISA; conditions: read off a plot
[8] = molecular target: H3K27me3 peptide, N-terminal biotin; assay: phage ELISA; conditions: read off a plot

Cbx1 chromodomain with the Asp9/Glu33 double substitution (from UniProt P83916 20-73) (domain or fragment)
Kd [1]: 582 nM and 632 nM and 600 nM

Cbx1.VD chromodomain, Asp9/Glu33 (tags removed) (from UniProt P83916 20-73) (domain or fragment)
Kd [2]: 600 nM

Cbx2 chromodomain with the Asp9/Glu33 double substitution (from UniProt Q14781 9-62) (domain or fragment)
Kd [1]: 4000 nM and 6000 nM and 5000 nM | Kd [3]: 2400 nM and 2100 nM and 4300 nM

Cbx2.VD chromodomain, Asp9/Glu33 (tags removed) (from UniProt Q14781 9-62) (domain or fragment)
Kd [4]: 3000 nM | Kd [2]: 5000 nM

Cbx3 chromodomain with the Asp9/Glu33 double substitution (from UniProt Q13185 29-86) (domain or fragment)
Kd [1]: 390 nM and 290 nM and 370 nM

Cbx3.VD chromodomain, Asp9/Glu33 (tags removed) (from UniProt Q13185 29-86) (domain or fragment)
Kd [2]: 350 nM

Cbx5 chromodomain with the Asp9/Glu33 double substitution (from UniProt P45973 18-75) (domain or fragment)
Kd [1]: 560 nM and 440 nM and 510 nM

Cbx5.VD chromodomain, Asp9/Glu33 (tags removed) (from UniProt P45973 18-75) (domain or fragment)
Kd [2]: 500 nM

Cbx7 chromodomain (from UniProt O95931)
Kd [5]: 55000 nM

Cbx7.wt (domain or fragment)
Kd [6]: 27000 nM

Cbx7.wt E8D; Q9D; V10I; K33E; P37L; K38E
response (Absorbance at 450 nm) [7]: 0.12

Cbx7.wt E8H; Q9D; A12P; K33R; G34D; P37E; K38Q
response (Absorbance at 450 nm) [8]: 0.55 | response (Absorbance at 450 nm) [7]: 0.08

Cbx7.wt G7C; E8D; Q9N; F11Y; A12P; P37L; K38E
response (Absorbance at 450 nm) [8]: 1.9 | response (Absorbance at 450 nm) [7]: 0.11

Cbx7.wt G7C; E8D; Q9N; K33E; P37Q; K38E
response (Absorbance at 450 nm) [8]: 0.52 | response (Absorbance at 450 nm) [7]: 0.09

Cbx7.wt G7C; Q9Y; V10I; A12S; K33E; K38E; S40M
response (Absorbance at 450 nm) [8]: 0.5 | response (Absorbance at 450 nm) [7]: 0.12

Cbx7.wt G7F; Q9D; A12P; P37S; K38E
response (Absorbance at 450 nm) [8]: 0.73 | response (Absorbance at 450 nm) [7]: 0.13

Cbx8 chromodomain with the Asp9/Glu33 double substitution (from UniProt Q9HC52 8-61) (domain or fragment)
Kd [1]: 21000 nM and 26000 nM and 16000 nM

Cbx8.VD chromodomain, Asp9/Glu33 (tags removed) (from UniProt Q9HC52 8-61) (domain or fragment)
Kd [4]: > 50000 nM | Kd [2]: 20000 nM

Reference: paper PMC9666628
